Assay results taken from publication PMC11116518.

Columns and labels:
[1] = molecular target: PlpD I117C with an N-terminal TwinStrepII tag (P. aeruginosa (strain PA14)) (UniProt Q9HYQ6); assay: cross-linking; in vivo disulfide-bond formation: cysteine mutants expressed in P. aeruginosa SEH88; intact cells in ice-cold PBS with 0.2 mM 4-DPS (or ethanol, mock) for 30 min; TCA precipitation, SDS-PAGE, immunoblot with the anti-PlpD C-terminal peptide antiserum
[2] = molecular target: PlpD I532C with an N-terminal TwinStrepII tag (P. aeruginosa (strain PA14)) (UniProt Q9HYQ6); assay: cross-linking; in vivo disulfide-bond formation, time course: cells in ice-cold PBS with 0.2 mM 4-DPS for 0, 2, 5, 15, 30, 60, 90 and 120 min; immunoblot with the anti-PlpD C-terminal peptide antiserum
[3] = molecular target: PlpD I532C with an N-terminal TwinStrepII tag (P. aeruginosa (strain PA14)) (UniProt Q9HYQ6); assay: cross-linking; in vivo disulfide-bond formation: cysteine mutants expressed in P. aeruginosa SEH88; intact cells in ice-cold PBS with 0.2 mM 4-DPS (or ethanol, mock) for 30 min; TCA precipitation, SDS-PAGE, immunoblot with the anti-PlpD C-terminal peptide antiserum
[4] = molecular target: PlpD M249C with an N-terminal TwinStrepII tag (P. aeruginosa (strain PA14)) (UniProt Q9HYQ6); assay: cross-linking; in vivo disulfide-bond formation, time course: cells in ice-cold PBS with 0.2 mM 4-DPS for 0, 2, 5, 15, 30, 60, 90 and 120 min; immunoblot with the anti-PlpD C-terminal peptide antiserum
[5] = molecular target: PlpD M249C with an N-terminal TwinStrepII tag (P. aeruginosa (strain PA14)) (UniProt Q9HYQ6); assay: cross-linking; in vivo disulfide-bond formation: cysteine mutants expressed in P. aeruginosa SEH88; intact cells in ice-cold PBS with 0.2 mM 4-DPS (or ethanol, mock) for 30 min; TCA precipitation, SDS-PAGE, immunoblot with the anti-PlpD C-terminal peptide antiserum
[6] = molecular target: PlpD S118C with an N-terminal TwinStrepII tag (P. aeruginosa (strain PA14)) (UniProt Q9HYQ6); assay: as above
[7] = molecular target: PlpD V113C with an N-terminal TwinStrepII tag (P. aeruginosa (strain PA14)) (UniProt Q9HYQ6); assay: as above

Substance: PlpD I117C with an N-terminal TwinStrepII tag (from UniProt Q9HYQ6 1-728) (natural protein)
- percent intermolecular disulfide bond formation [1]: 84%

Substance: PlpD I532C with an N-terminal TwinStrepII tag (from UniProt Q9HYQ6 1-728) (natural protein)
- percent intermolecular disulfide bonding, peak of the time course [2]: 63%
- percent of PlpD in intermolecular disulfide-bonded form (30 min 4-DPS) [3]: 65%
- stoichiometry N [3]: 2

Substance: PlpD M249C with an N-terminal TwinStrepII tag (from UniProt Q9HYQ6 1-728) (natural protein)
- percent intermolecular disulfide bonding, plateau of the time course (60-90 min) [4]: 91.5%
- percent of PlpD in intermolecular disulfide-bonded form (30 min 4-DPS) [5]: 65%
- stoichiometry N [5]: 2

Substance: PlpD S118C with an N-terminal TwinStrepII tag (from UniProt Q9HYQ6 1-728) (natural protein)
- percent intermolecular disulfide bond formation [6]: 84%

Substance: PlpD V113C with an N-terminal TwinStrepII tag (from UniProt Q9HYQ6 1-728) (natural protein)
- percent intermolecular disulfide bond formation [7]: 84%
